According to US20240409645A1 (DUALYX, published 2024):

T1: human IL-2 receptor (IL-2Rα/IL-2Rβ/γc) (human, UniProt P01589 22-272; P14784 27-551; P31785 23-369)
T1 sequence 1: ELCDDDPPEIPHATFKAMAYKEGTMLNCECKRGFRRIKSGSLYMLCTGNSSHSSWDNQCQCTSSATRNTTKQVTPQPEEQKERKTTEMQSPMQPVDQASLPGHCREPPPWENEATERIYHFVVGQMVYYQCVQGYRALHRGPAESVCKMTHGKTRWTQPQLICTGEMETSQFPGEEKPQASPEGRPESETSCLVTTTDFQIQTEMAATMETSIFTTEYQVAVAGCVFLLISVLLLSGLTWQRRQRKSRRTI
T1 sequence 2: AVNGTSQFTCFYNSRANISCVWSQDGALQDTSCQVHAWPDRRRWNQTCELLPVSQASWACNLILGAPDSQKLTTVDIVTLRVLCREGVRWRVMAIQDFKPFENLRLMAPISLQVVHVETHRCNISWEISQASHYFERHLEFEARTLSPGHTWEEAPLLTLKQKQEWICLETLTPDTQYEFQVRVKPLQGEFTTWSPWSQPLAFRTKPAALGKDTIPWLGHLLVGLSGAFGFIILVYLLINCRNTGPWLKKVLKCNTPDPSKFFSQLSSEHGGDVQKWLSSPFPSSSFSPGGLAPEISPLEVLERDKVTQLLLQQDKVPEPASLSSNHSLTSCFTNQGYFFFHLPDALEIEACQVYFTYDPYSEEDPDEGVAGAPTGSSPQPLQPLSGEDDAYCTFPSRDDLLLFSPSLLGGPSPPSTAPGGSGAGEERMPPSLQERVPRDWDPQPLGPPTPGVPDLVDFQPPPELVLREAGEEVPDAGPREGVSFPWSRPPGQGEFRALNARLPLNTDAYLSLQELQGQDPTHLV
T1 sequence 3: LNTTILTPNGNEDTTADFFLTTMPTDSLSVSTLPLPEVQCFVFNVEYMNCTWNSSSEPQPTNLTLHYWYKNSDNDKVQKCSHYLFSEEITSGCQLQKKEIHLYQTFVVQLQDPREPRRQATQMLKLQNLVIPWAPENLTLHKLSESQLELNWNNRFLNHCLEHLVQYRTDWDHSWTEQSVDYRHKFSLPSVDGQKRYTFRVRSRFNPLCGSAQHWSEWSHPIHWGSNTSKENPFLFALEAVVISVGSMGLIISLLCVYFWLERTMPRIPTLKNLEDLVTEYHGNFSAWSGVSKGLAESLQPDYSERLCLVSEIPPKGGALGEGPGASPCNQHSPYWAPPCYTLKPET

B1: DC00053 (other)
chain 1: QVQLVESGGGLVQPGGSLRLSCATSGFTFRNNFMSWVRQAPGKGLEWVSTISYGGESTTYAESVKGRFTISRDNAKNTLYLQMNNLKPEDTAVYYCAKATSYDSIRSGSRGQGTQVTVSSGGGGSGGGGSGGGGSEVQLVESGGGLVQTGGSLRLSCAASGGTFSRDAMAWFRQVPGKEREFVALISWSGATTNYADSVKGRFAISRDNGKNTVYLQMNRLKPADTAIYYCAADRRPMGSRSYFEPTEYDDWGQGTQVTVSSGGGGSGGGGSGGGGSDKTHTCPPCPAPEAAGGPSVFLFPPKPKDTLMISRTPEVTCVVVDVSHEDPEVKFNWYVDGVEVHNAKTKPREEQYNSTYRVVSVLTVLHQDWLNGKEYKCKVSNKALGAPIEKTISKAKGQPREPQVYTLPPSRDELTKNQVSLTCLVKGFYPSDIAVEWESNGQPENNYKTTPPVLDSDGSFLLYSKLTVDKSRWQQGNVFSCSVMHEALHNHYTQKSLSLSPGK
chain 2: EVQLVESGGGLVQTGGSLRLSCAASGGTFSRDAMAWFRQVPGKEREFVALISWSGATTNYADSVKGRFAISRDNGKNTVYLQMNRLKPADTAIYYCAADRRPMGSRSYFEPTEYDDWGQGTQVTVSSGGGGSGGGGSGGGGSQVQLVESGGGLVQPGGSLRLSCATSGFTFRNNFMSWVRQAPGKGLEWVSTISYGGESTTYAESVKGRFTISRDNAKNTLYLQMNNLKPEDTAVYYCAKATSYDSIRSGSRGQGTQVTVSSGGGGSGGGGSGGGGSQVQLVESGGGLVQAGGSLTLSCAAPGRTFGTDVVGWFRQAPGKEREFVASISRSGDGIYYDDSVKGRFTISRNNAWNTVNLQMNSLKVEDTAVYYCAAGDGWSTYDYWGQGTQVTVSSGGGGSGGGGSGGGGSDKTHTCPPCPAPEAAGGPSVFLFPPKPKDTLMISRTPEVTCVVVDVSHEDPEVKFNWYVDGVEVHNAKTKPREEQYNSTYRVVSVLTVLHQDWLNGKEYKCKVSNKALGAPIEKTISKAKGQPREPQVYTLPPSRDELTKNQVSLTCLVKGFYPSDIAVEWESNGQPENNYKTTPPVLDSDGSFFLYSRLTVDKSRWQQGNVFSCSVMHEALHNHYTQKSLSLSPGK
B2: DC00058 (other)
chain 1: B1 chain 1
chain 2: QVQLVESGGGLVQAGGSLTLSCAAPGRTFGTDVVGWFRQAPGKEREFVASISRSGDGIYYDDSVKGRFTISRNNAWNTVNLQMNSLKVEDTAVYYCAAGDGWSTYDYWGQGTQVTVSSGGGGSGGGGSGGGGSEVQLVESGGGLVQTGGSLRLSCAASGGTFSRDAMAWFRQVPGKEREFVALISWSGATTNYADSVKGRFAISRDNGKNTVYLQMNRLKPADTAIYYCAADRRPMGSRSYFEPTEYDDWGQGTQVTVSSGGGGSGGGGSGGGGSQVQLVESGGGLVQPGGSLRLSCATSGFTFRNNFMSWVRQAPGKGLEWVSTISYGGESTTYAESVKGRFTISRDNAKNTLYLQMNNLKPEDTAVYYCAKATSYDSIRSGSRGQGTQVTVSSDKTHTCPPCPAPEAAGGPSVFLFPPKPKDTLMISRTPEVTCVVVDVSHEDPEVKFNWYVDGVEVHNAKTKPREEQYNSTYRVVSVLTVLHQDWLNGKEYKCKVSNKALGAPIEKTISKAKGQPREPQVYTLPPSRDELTKNQVSLTCLVKGFYPSDIAVEWESNGQPENNYKTTPPVLDSDGSFFLYSRLTVDKSRWQQGNVFSCSVMHEALHNHYTQKSLSLSPGK
B3: DC00059 (other)
chain 1: B1 chain 1
chain 2: QVQLVESGGGLVQAGGSLTLSCAAPGRTFGTDVVGWFRQAPGKEREFVASISRSGDGIYYDDSVKGRFTISRNNAWNTVNLQMNSLKVEDTAVYYCAAGDGWSTYDYWGQGTQVTVSSGGGGSGGGGSGGGGSQVQLVESGGGLVQPGGSLRLSCATSGFTFRNNFMSWVRQAPGKGLEWVSTISYGGESTTYAESVKGRFTISRDNAKNTLYLQMNNLKPEDTAVYYCAKATSYDSIRSGSRGQGTQVTVSSGGGGSGGGGSGGGGSEVQLVESGGGLVQTGGSLRLSCAASGGTFSRDAMAWFRQVPGKEREFVALISWSGATTNYADSVKGRFAISRDNGKNTVYLQMNRLKPADTAIYYCAADRRPMGSRSYFEPTEYDDWGQGTQVTVSSGGGGSGGGGSGGGGSDKTHTCPPCPAPEAAGGPSVFLFPPKPKDTLMISRTPEVTCVVVDVSHEDPEVKFNWYVDGVEVHNAKTKPREEQYNSTYRVVSVLTVLHQDWLNGKEYKCKVSNKALGAPIEKTISKAKGQPREPQVYTLPPSRDELTKNQVSLTCLVKGFYPSDIAVEWESNGQPENNYKTTPPVLDSDGSFFLYSRLTVDKSRWQQGNVFSCSVMHEALHNHYTQKSLSLSPGK
B4: DC00061 (other)
chain 1: B1 chain 1
chain 2: QVQLVESGGGLVQAGGSLTLSCAAPGRTFGTDVVGWFRQAPGKEREFVASISRSGDGIYYDDSVKGRFTISRNNAWNTVNLQMNSLKVEDTAVYYCAAGDGWSTYDYWGQGTQVTVSSGGGGSGGGGSGGGGSQVQLVESGGGLVQPGGSLRLSCATSGFTFRNNFMSWVRQAPGKGLEWVSTISYGGESTTYAESVKGRFTISRDNAKNTLYLQMNNLKPEDTAVYYCAKATSYDSIRSGSRGQGTQVTVSSDKTHTCPPCPAPEAAGGPSVFLFPPKPKDTLMISRTPEVTCVVVDVSHEDPEVKFNWYVDGVEVHNAKTKPREEQYNSTYRVVSVLTVLHQDWLNGKEYKCKVSNKALGAPIEKTISKAKGQPREPQVYTLPPSRDELTKNQVSLTCLVKGFYPSDIAVEWESNGQPENNYKTTPPVLDSDGSFFLYSRLTVDKSRWQQGNVFSCSVMHEALHNHYTQKSLSLSPGK
B5: DC00055 (other)
chain 1: B1 chain 1
chain 2: QVQLVESGGGLVQPGGSLRLSCATSGFTFRNNFMSWVRQAPGKGLEWVSTISYGGESTTYAESVKGRFTISRDNAKNTLYLQMNNLKPEDTAVYYCAKATSYDSIRSGSRGQGTQVTVSSGGGGSGGGGSGGGGSQVQLVESGGGLVQAGGSLTLSCAAPGRTFGTDVVGWFRQAPGKEREFVASISRSGDGIYYDDSVKGRFTISRNNAWNTVNLQMNSLKVEDTAVYYCAAGDGWSTYDYWGQGTQVTVSSGGGGSGGGGSGGGGSEVQLVESGGGLVQTGGSLRLSCAASGGTFSRDAMAWFRQVPGKEREFVALISWSGATTNYADSVKGRFAISRDNGKNTVYLQMNRLKPADTAIYYCAADRRPMGSRSYFEPTEYDDWGQGTQVTVSSGGGGSGGGGSGGGGSDKTHTCPPCPAPEAAGGPSVFLFPPKPKDTLMISRTPEVTCVVVDVSHEDPEVKFNWYVDGVEVHNAKTKPREEQYNSTYRVVSVLTVLHQDWLNGKEYKCKVSNKALGAPIEKTISKAKGQPREPQVYTLPPSRDELTKNQVSLTCLVKGFYPSDIAVEWESNGQPENNYKTTPPVLDSDGSFFLYSRLTVDKSRWQQGNVFSCSVMHEALHNHYTQKSLSLSPGK
B6: DC00057 (other)
chain 1: B1 chain 1
chain 2: QVQLVESGGGLVQPGGSLRLSCATSGFTFRNNFMSWVRQAPGKGLEWVSTISYGGESTTYAESVKGRFTISRDNAKNTLYLQMNNLKPEDTAVYYCAKATSYDSIRSGSRGQGTQVTVSSGGGGSGGGGSGGGGSEVQLVESGGGLVQTGGSLRLSCAASGGTFSRDAMAWFRQVPGKEREFVALISWSGATTNYADSVKGRFAISRDNGKNTVYLQMNRLKPADTAIYYCAADRRPMGSRSYFEPTEYDDWGQGTQVTVSSGGGGSGGGGSGGGGSQVQLVESGGGLVQAGGSLTLSCAAPGRTFGTDVVGWFRQAPGKEREFVASISRSGDGIYYDDSVKGRFTISRNNAWNTVNLQMNSLKVEDTAVYYCAAGDGWSTYDYWGQGTQVTVSSGGGGSGGGGSGGGGSDKTHTCPPCPAPEAAGGPSVFLFPPKPKDTLMISRTPEVTCVVVDVSHEDPEVKFNWYVDGVEVHNAKTKPREEQYNSTYRVVSVLTVLHQDWLNGKEYKCKVSNKALGAPIEKTISKAKGQPREPQVYTLPPSRDELTKNQVSLTCLVKGFYPSDIAVEWESNGQPENNYKTTPPVLDSDGSFFLYSRLTVDKSRWQQGNVFSCSVMHEALHNHYTQKSLSLSPGK

Molecular target: T1, human IL-2 receptor (IL-2Rα/IL-2Rβ/γc)
Assay: cell-based or functional assay

Binder	EC50 (nM) pSTAT5, NK, human PBMCs [nM]	EC50 (nM) pSTAT5, Treg, human PBMCs	Fold Max signal (% pSTAT5+) Treg/NK [fold]	Max signal (% pSTAT5+), NK [% pSTAT5+]	Max signal (% pSTAT5+), Treg [% pSTAT5+]	fold EC50 NK/Treg [fold]
B1	0.057	0.488 pM	7	13	84	117
B2	1.87	0.0025 nM	3	34	97	748
B3	0.0401	0.252 pM	6	14	86	159
B4	0.165	0.00427 nM	9	5	44	39
B5	0.889	< 0.1 pM	3	34	97	> 8890
B6	0.548	0.00208 nM	5	19	89	263
